In patent US5162203A, “Methods of measuring isozymes and isozyme classes of alcohol dehydrogenase” (President and Fellows of Harvard College, priority 1989, dated 1992) one finds Km, kcat and kcat/Km data, which are given here for 6 proteins.

As a reminder, the Km is the concentration of substrate that gives half-maximal velocity. As usually defined, the kcat is the number of substrate molecules converted per active site and unit of time at saturation. The kcat/Km is the turnover number divided by the Michaelis constant.

Type in all cases: biochemical, human
Substrate in series [1]: COc1ccc(C=O)c2ccccc12
The series can be described thus: Kinetics of enzymatic reduction of methoxynaphthaldehydes by αβ1 ADH. The note with it: other: pH 7.0, 50 μM NADH, spectrophotometric, 25.0 °C. Here is the method: (§1) Standard assays for ethanol oxidation activity (Dalziel, 1957, Acta Chem Scand 11:1706-23) were carried out on a Cary 219 spectrophotometer interfaced with an Apple IIe microcomputer, using software provided by Varian Associates. The reaction mixture contained 2.5 mM NAD^+ in 0.1M glycine-NaOH buffer. pH 10.0, and 33 mM or 0.2M ethanol for Class I and Class II ADH, respectively.
(§2) Aldehyde reduction was monitored by following the decrease of absorption at 340 nm in 40 mM Mes buffer, pH 7.1. in the presence of saturating NADH, 50 μM for Class I and 100 μM for Class II. […] Initial reaction rates were measured and kinetic parameters determined by conventional procedures as described by Segel, 1975, Enzyme Kinetics, pp. 591-597, Wiley, N.Y.
(§3) All reaction mixtures (3 ml total volume) were prepared directly in 1 cm pathlength, 4 ml fluorometric cuvettes by adding 150 μl of the 300 μM substrate solution (e.g substrate IA or IIA) 100 μl of the 1 mM NADH solution (prepared as in part 5 above) and 2.69 ml of assay buffer (0.1M phosphate, pH 7.6). After thermal equilibration (25° C.) for 5 minutes, 60 μl of isozyme sample (either serum or purified ADH isozymes) was added to the cuvette.
(§4) The linear increase of fluorescence was then recorded for 1-10 minutes, until 0.03-1 μM of substrate was consumed. Larger substrate consumption was not found to be desirable (described in subpart (c) below). After this period the instrument sensitivity setting was reduced 10-30 fold, the signal compensated once again by zero suppression (see part 6 above), and 60 μl of 200-400 μM product (e.g., product IB or IIB) was added to provide an internal standard. The added product fluorescence intensity was then measured Fluorescence measurements were optimized for samples with low activity (<1 nM/minute). […] Rates measured in the presence of the 0.2 mM ADH inhibitors. […]
(§5) The rates of aldehyde reduction, determined as initial velocities (V) and expressed in units of nM/minute, were calculated according to: [formula] where the quantity in parentheses is the slope of the linear fluorescence increase calculated from the quantities Ft and FO, the fluorescence at time t and at the beginning of the reaction, respectively. Cst is the concentration of the product used as a standard added to the cuvette after the initial rate had been measured and Fst is the fluorescence intensity of the added product
(§6) Additionally the reaction rates for these isozymes were compared to those measured by the standard assay for ethanol oxidation (see part 7 above) at pH 10.0 the optimum for oxidation of ethanol by ADH. The rate of IA reduction for all Class I isozymes except the β1 β1 form is 1.5- to 4-fold faster than that of ethanol oxidation as measured by the conventional ethanol oxidation assay. […]

Substrate in series [2]: COc1ccc2cc(C=O)ccc2c1
The description is as above. The note with it: other: pH 7.0, 50 μM NADH, spectrophotometric, 25.0 °C. How it is done:
as §1, §2, §3, §4, §5, §6

Substrate in series [3]: COc1ccc(C=O)c2ccccc12
The experiment in a line: Kinetics of enzymatic reduction of methoxynaphthaldehydes by αγ1 ADH. The conditions noted are these: other: pH 7.0, 50 μM NADH, fluorometric, 25.0 °C.

Substrate in series [4]: COc1ccc2cc(C=O)ccc2c1
The description is as above. The note with it: other: pH 7.0, 50 μM NADH, fluorometric, 25.0 °C.

Substrate in series [5]: COc1ccc(C=O)c2ccccc12
The experiment in a line: Kinetics of enzymatic reduction of methoxynaphthaldehydes by Class II ADH. The conditions noted are these: 25.0 °C.

Substrate in series [6]: COc1ccc2cc(C=O)ccc2c1
The series is described as above. The conditions noted are these: other: pH 7.0, 50 μM NADH; spectrophotometric; pH 7.0; 25.0 °C.

Substrate in series [7]: COc1ccc2cc(C=O)ccc2c1
The experiment in a line: Kinetics of enzymatic reduction of methoxynaphthaldehydes by Class III ADH. The conditions noted are these: other: pH 7.0, 50 μM NADH, 25.0 °C.

Substrate in series [8]: COc1ccc(C=O)c2ccccc12
The experiment in a line: Kinetics of enzymatic reduction of methoxynaphthaldehydes by β1γ1 ADH. The conditions noted are these: other: pH 7.0, 50 μM NADH, fluorometric, 25.0 °C.

Substrate in series [9]: COc1ccc2cc(C=O)ccc2c1
The description is as above. The note with it: other: pH 7.0, 50 μM NADH, fluorometric, 25.0 °C.

Substrate in series [10]: COc1ccc(C=O)c2ccccc12
The series can be described thus: Kinetics of enzymatic reduction of methoxynaphthaldehydes by γ1γ1 ADH. The note with it: other: pH 7.0, 50 μM NADH, fluorometric, 25.0 °C.

Substrate in series [11]: COc1ccc2cc(C=O)ccc2c1
Described as above. The conditions noted are these: other: pH 7.0, 50 μM NADH, fluorometric, 25.0 °C.

[12] abbreviates: other: pH 7.0, 50 μM NADH, spectrophotometric, pH 7.0.

B1: αβ1 ADH (Class I) (Homo sapiens) (protein)
chain 1: STAGKVIKCKAAVLWELKKPFSIEEVEVAPPKAHEVRIKMVAVGICGTDDHVVSGTMVTPLPVILGHEAAGIVESVGEGVTTVKPGDKVIPLAIPQCGKCRICKNPESNYCLKNDVSNPQGTLQDGTSRFTCRRKPIHHFLGISTFSQYTVVDENAVAKIDAASPLEKVCLIGCGFSTGYGSAVNVAKVTPGSTCAVFGLGGVGLSAIMGCKAAGAARIIAVDINKDKFAKAKELGATECINPQDYKKPIQEVLKEMTDGGVDFSFEVIGRLDTMMASLLCCHEACGTSVIVGVPPDSQNLSMNPMLLLTGRTWKGAILGGFKSKECVPKLVADFMAKKFSLDALITHVLPFEKINEGFDLLHSGKSIRTILMF
chain 2: STAGKVIKCKAAVLWEVKKPFSIEDVEVAPPKAYEVRIKMVAVGICHTDDHVVSGNLVTPLPVILGHEAAGIVESVGEGVTTVKPGDKVIPLFTPQCGKCRVCKNPESNYCLKNDLGNPRGTLQDGTRRFTCRGKPIHHFLGTSTFSQYTVVDENAVAKIDAASPLEKVCLIGCGFSTGYGSAVNVAKVTPGSTCAVFGLGGVGLSAVMGCKAAGAARIIAVDINKDKFAKAKELGATECINPQDYKKPIQEVLKEMTDGGVDFSFEVIGRLDTMMASLLCCHEACGTSVIVGVPPASQNLSINPMLLLTGRTWKGAVYGGFKSKEGIPKLVADFMAKKFSLDALITHVLPFEKINEGFDLLHSGKSIRTVLTF
notes: beta1 allele (ADH1B*1, Arg47 and Arg369 in mature count)
As for B1, in [1], the Michaelis-Menten constant (Km) turned out to be 8.5 µM and the turnover number (kcat) came to 7.5 s⁻¹. Further, in [2], the Km was 11.5 µM and the kcat stood at 2.67 s⁻¹.

B2: αγ1 ADH (Class I) (Homo sapiens) (protein)
chain 1: STAGKVIKCKAAVLWELKKPFSIEEVEVAPPKAHEVRIKMVAVGICGTDDHVVSGTMVTPLPVILGHEAAGIVESVGEGVTTVKPGDKVIPLAIPQCGKCRICKNPESNYCLKNDVSNPQGTLQDGTSRFTCRRKPIHHFLGISTFSQYTVVDENAVAKIDAASPLEKVCLIGCGFSTGYGSAVNVAKVTPGSTCAVFGLGGVGLSAIMGCKAAGAARIIAVDINKDKFAKAKELGATECINPQDYKKPIQEVLKEMTDGGVDFSFEVIGRLDTMMASLLCCHEACGTSVIVGVPPDSQNLSMNPMLLLTGRTWKGAILGGFKSKECVPKLVADFMAKKFSLDALITHVLPFEKINEGFDLLHSGKSIRTILMF
chain 2: STAGKVIKCKAAVLWELKKPFSIEEVEVAPPKAHEVRIKMVAAGICRSDEHVVSGNLVTPLPVILGHEAAGIVESVGEGVTTVKPGDKVIPLFTPQCGKCRICKNPESNYCLKNDLGNPRGTLQDGTRRFTCSGKPIHHFVGVSTFSQYTVVDENAVAKIDAASPLEKVCLIGCGFSTGYGSAVKVAKVTPGSTCAVFGLGGVGLSVVMGCKAAGAARIIAVDINKDKFAKAKELGATECINPQDYKKPIQEVLKEMTDGGVDFSFEVIGRLDTMMASLLCCHEACGTSVIVGVPPDSQNLSINPMLLLTGRTWKGAIFGGFKSKESVPKLVADFMAKKFSLDALITNILPFEKINEGFDLLRSGKSIRTVLTF
notes: gamma1 allele (ADH1C*1, Arg271 and Ile349 in mature count)
For B2, in [3], the Km is 2.8 µM and the catalytic constant (kcat) came to 8.33 s⁻¹. Moreover, in [4], the Michaelis constant (Km) is 0.58 µM and the kcat turned out to be 2.5 s⁻¹.

B3: Class II (π) ADH (Homo sapiens) (protein)
chain: MGTKGKVIKCKAAIAWEAGKPLCIEEVEVAPPKAHEVRIQIIATSLCHTDATVIDSKFEGLAFPVIVGHEAAGIVESIGPGVTNVKPGDKVIPLYAPLCRKCKFCLSPLTNLCGKISNLKSPASDQQLMEDKTSRFTCKGKPVYHFFGTSTFSQYTVVSDINLAKIDDDANLERVCLLGCGFSTGYGAAINNAKVTPGSTCAVFGLGGVGLSAVMGCKAAGASRIIGIDINSEKFVKAKALGATDCLNPRDLHKPIQEVIIELTKGGVDFALDCAGGSETMKAALDCTTAGWGSCTFIGVAAGSKGLTIFPEELIIGRTINGTFFGGWKSVDSIPKLVTDYKNKKFNLDALVTHTLPFDKISEAFDLMNQGKSVRTILIF
With B3, the kcat in series [5] (other: Class II) turned out to be 0.667 s⁻¹; in series [5] (setting [12]), 0.833 s⁻¹; in [6] it was 25 s⁻¹. Also, the values for the Michaelis-Menten constant (Km) in series [5] (setting [12]) and in series [6] were 20.0 µM and 2.6 µM, respectively.

B4: Class III (.chi.) ADH (Homo sapiens) (protein)
chain: MANEVIKCKAAVAWEAGKPLSIEEIEVAPPKAHEVRIKIIATAVCHTDAYTLSGADPEGCFPVILGHEGAGIVESVGEGVTKLKAGDTVIPLYIPQCGECKFCLNPKTNLCQKIRVTQGKGLMPDGTSRFTCKGKTILHYMGTSTFSEYTVVADISVAKIDPLAPLDKVCLLGCGISTGYGAAVNTAKLEPGSVCAVFGLGGVGLAVIMGCKVAGASRIIGVDINKDKFARAKEFGATECINPQDFSKPIQEVLIEMTDGGVDYSFECIGNVKVMRAALEACHKGWGVSVVVGVAASGEEIATRPFQLVTGRTWKGTAFGGWKSVESVPKLVSEYMSKKIKVDEFVTHNLSFDEINKAFELMHSGKSIRTVVKI
Regarding B4, in series [7], the kcat/Km was 830 M⁻¹ s⁻¹.

B5: β1 γ1 ADH (Class I) (Homo sapiens) (protein)
chain 1: MSTAGKVIKCKAAVLWEVKKPFSIEDVEVAPPKAYEVRIKMVAVGICHTDDHVVSGNLVTPLPVILGHEAAGIVESVGEGVTTVKPGDKVIPLFTPQCGKCRVCKNPESNYCLKNDLGNPRGTLQDGTRRFTCRGKPIHHFLGTSTFSQYTVVDENAVAKIDAASPLEKVCLIGCGFSTGYGSAVNVAKVTPGSTCAVFGLGGVGLSAVMGCKAAGAARIIAVDINKDKFAKAKELGATECINPQDYKKPIQEVLKEMTDGGVDFSFEVIGRLDTMMASLLCCHEACGTSVIVGVPPASQNLSINPMLLLTGRTWKGAVYGGFKSKEGIPKLVADFMAKKFSLDALITHVLPFEKINEGFDLLHSGKSIRTVLTF
chain 2: MSTAGKVIKCKAAVLWELKKPFSIEEVEVAPPKAHEVRIKMVAAGICRSDEHVVSGNLVTPLPVILGHEAAGIVESVGEGVTTVKPGDKVIPLFTPQCGKCRICKNPESNYCLKNDLGNPRGTLQDGTRRFTCSGKPIHHFVGVSTFSQYTVVDENAVAKIDAASPLEKVCLIGCGFSTGYGSAVKVAKVTPGSTCAVFGLGGVGLSVVMGCKAAGAARIIAVDINKDKFAKAKELGATECINPQDYKKPIQEVLKEMTDGGVDFSFEVIGRLDTMMASLLCCHEACGTSVIVGVPPDSQNLSINPMLLLTGRTWKGAIFGGFKSKESVPKLVADFMAKKFSLDALITNILPFEKINEGFDLLRSGKSIRTVLTF
notes: beta1 (ADH1B*1) and gamma1 (ADH1C*1) alleles
In the case of B5, in [8], the Km came to 0.60 µM and the kcat was 4.42 s⁻¹. Moreover, in [9], the Michaelis constant (Km) stood at 0.40 µM and the kcat was found to be 2.83 s⁻¹.

B6: γ1 γ1 ADH (Class I) (Homo sapiens) (protein)
chain: STAGKVIKCKAAVLWELKKPFSIEEVEVAPPKAHEVRIKMVAAGICRSDEHVVSGNLVTPLPVILGHEAAGIVESVGEGVTTVKPGDKVIPLFTPQCGKCRICKNPESNYCLKNDLGNPRGTLQDGTRRFTCSGKPIHHFVGVSTFSQYTVVDENAVAKIDAASPLEKVCLIGCGFSTGYGSAVKVAKVTPGSTCAVFGLGGVGLSVVMGCKAAGAARIIAVDINKDKFAKAKELGATECINPQDYKKPIQEVLKEMTDGGVDFSFEVIGRLDTMMASLLCCHEACGTSVIVGVPPDSQNLSINPMLLLTGRTWKGAIFGGFKSKESVPKLVADFMAKKFSLDALITNILPFEKINEGFDLLRSGKSIRTVLTF
notes: as for B2
Regarding B6, in series [10], the Km amounted to 2.30 µM and the turnover number (kcat) turned out to be 10.2 s⁻¹. In addition, in series [11], the Km is 0.35 µM and the turnover number (kcat) turned out to be 1.83 s⁻¹.
